Here are results for 41 sequences from the nanobody polyreactivity screen of Harvey et al. (2022).

The data set can be described thus: yeast display, Sf9 membrane polyspecificity reagent, FACS + sequencing; frameworks hold sequencing errors. The method, boiled down: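 Nanobodies from a synthetic yeast display library (Saccharomyces cerevisiae BJ5465), induced 36–48 hours with galactose, were stained 1 hour at 4 °C with 10% biotinylated, detergent-solubilized Sf9 membrane reagent, enriched on streptavidin microbeads, then FACS-sorted. Anti-HA (expression) and streptavidin (reagent binding) fluorescence set low and high (top ~1%) gates. Polyreactivity labels come from the gate of origin. Genes were colony-PCR amplified, MiSeq 2 × 250 sequenced and filtered by CDR length.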
As to “QVQLVESGGGLVQAGGSLRLSCAASGRTLRRYAMGWYRQAPGKERELVAAITSGGTTNYADSVKGRFTISRDNAKNTVYLQMNSLKPEDTAVYYCNARKSSGLSSYDWYSWEYGYWGQGTQVTVSS”, the “polyreactivity (PSR sort gate)” value is given as “low polyreactivity”.
With “QVQLVESGGGLVQAGGSLRLSCAASGRTLRYYAMGWYRQAPGKDRELVASISIGGSTYYADSVKGRFTISRDNAKNTVYLQMTSLKPEDTAVYYGATDYSNSGYGYWGQGTQVTVSS” the entry was “low polyreactivity”; with “QVQLVESGGGLVQAGGSLRLSCAASGRTLRYYAMGWYRQAPGTERELVASISIGGSTYYADSVKGRFTISRDNAKNTVYLQMHSQKPEATAVYYCATDYSTSGYGYWGQGTQVTVST”, “low polyreactivity”; with “QVQLVESGGGLVQAGGSLRLSCAASGRTLSAYAMGWYRQAPGKERELVAALRWRGGSTVYAASVKGRFTISRDNAKNPVYLQMHSLKPADTAVYYCNALPGNRRTVYYWGQGTQVTVSS”, “high polyreactivity”.
With “QVQLVESGGGLVQAGGSLRLSCAASGRTLSFYTMGWYRQAPGKERELVAAISSRTGSTYYADSVKGRFTISRDNAKNTVYLQMNRLKPEDTAVYYCAAASRAFAGSGHYYWGQGTQVTVSS” the entry was “high polyreactivity”.
For “QVQLVESGGGLVQAGGSLRLSCAASGRTLSKNAMGWYRQAPGKERELVATISSVGRTNYADSVKGRFTISRDNAKNTVYLQMNSLKPVDTAVYYCAARRFRGSYYWGLGTQVTVSS”, the “polyreactivity (PSR sort gate)” value is “high polyreactivity”.
With “QVQLVESGGGLVQAGGSLRLSCAASGRTLSRYTMGWYRQAPGKERELVAAISTSGSTYYADSVKGRFTISRDNAKNTVYLQMNSLKPEDTAVYYCYAVRRYLQYATGYDYWGQGTQVTVSS” the entry was “high polyreactivity”; with “QVQLVESGGGLVQAGGSLRLSCAASGRTLSWYAMGWYRQAPGKERELVAAISYRGVSTYYADSVKGRFTISRDNAKNTVYLQMNSLNPEDTAVYYCAAESWYYSYIVEMEYWGQGTQVTVSS”, “high polyreactivity”.
With “QVQLVESGGGLVQAGGSLRLSCAASGRTLSWYAMGWYRQAPGKERELVASISSGGGTYYADSVKGRFTISRDNAKNTVYLQMNSLKPEDTAVYYCAARYHYAKSPYRYYYWGQGTQVTVSS” the entry was “high polyreactivity”; with “QVQLVESGGGLVQAGGSLRLSCAASGRTLTFYAMGWYRQAPVKERELVAAISRRAGSTYYADSVKGRFTISRDTAKNTVYLQMNSLKPEDTAVYYCAREPYSASHRYCLYRGYDYWGQGTQVTVSS”, “low polyreactivity”; with “QVQLVESGGGLVQAGGSLRLSCAASGRTLTGYDMGWYRQAPGKERELVAAITWSGGSTFYADSVKGRFTMSRYNAKNTVYLQMNSLKPEDTAVYYCNVTDVTEPSLIYGYYWGQGTQVTVSS”, “low polyreactivity”.
“QVQLVESGGGLVQAGGSLRLSCAASGRTLTIYAMGWYRPAPGKERELVAAINWSGGGTYYADSVKGRFTISRDNAKNTVYLQMNRLKPEDTAVYYCAAGRSFRGSYWYEYWGQGTQVTVSS”: the “polyreactivity (PSR sort gate)” value was “high polyreactivity”.
With “QVQLVESGGGLVQAGGSLRLSCAASGRTLTQNAMGWYRQAPGKERELVATISWTAGSTYYADSVKGRFTISRDNAKNTVYLQMNSLKPEDTAVYYCAAVVFYSIYDYWGQGTQVTVSS” the entry was “low polyreactivity”; with “QVQLVESGGGLVQAGGSLRLSCAASGRTLVLNMGWYRQAPGKERELVATINSGGSTYYADSVKGRFTISRDNAKNTVYLQMNSLKPEDTAVYYCAVLSSDGKFDYWGQGTQVTVSS”, “low polyreactivity”.
Consider “QVQLVESGGGLVQAGGSLRLSCAASGRTLVLNMGWYRQAPGKQRELVATINSGGSTYYADSVKGRFTISRANAKNTVYLQMNSLKPEDSAVYYCAVLSSDGKFDYWGQGSQVTVSS”, for which the “polyreactivity (PSR sort gate)” value is reported as “low polyreactivity”.
Take “QVQLVESGGGLVQAGGSLRLSCAASGRTLVPYAMGWYRQAPGKERELVAAINSSGGSTYYADSVKGRFTISRDNEKNTVYLQMNSLKPEDTAVYYCNVQSVHFRLWKDNYWGQGTQVTVSS”: the “polyreactivity (PSR sort gate)” value was “high polyreactivity”.
Under “QVQLVESGGGLVQAGGSLRLSCAASGRTLVRNAMGWYTQAPGKEREFVAGITESGDRTSYADSVKGRFTISRDNAKNTVYLQMNSLKPEDTAVYFCAASRPWDFYSFGFDYWGQGTQVTVSS” stands “high polyreactivity”; under “QVQLVESGGGLVQAGGSLRLSCAASGRTLVWYTMGWYRQAPGKEREFVAVITTGSGSTYYADSVKGRFTISRDNAKNTVYLQMNSLKPEDTAVYYCNAGYGGYSYHYPPYEYWGQGTQVTVSS”, “low polyreactivity”.
With “QVQLVESGGGLVQAGGSLRLSCAASGRTLVYAMGWYRQAPGKERELVATIYRGGNTYYADSVKGRFTISRDNAKNTVYLQMNSLKPEDTAVYYCNKPTYQWGQGTQVTVSS” the entry was “high polyreactivity”; with “QVQLVESGGGLVQAGGSLRLSCAASGRTLVYNAMGWYRQAPGKERELVAAITTDGGDTYYADSVKGRFTISRDNAKNTVYLQMNSLKPEDTAVYYCAADYVALYYWYDYWGQGTQVTVSS”, “low polyreactivity”.
Under “QVQLVESGGGLVQAGGSLRLSCAASGRTLWANAMGWYRQAPGKERELVAAITYSGGSTHYADSVKGRFTISRDNAKNTVYLQMNSLKPEDTAVYYCNADYDSYYTYLYDYWGQGTQVTVSS” stands “low polyreactivity”; under “QVQLVESGGGLVQAGGSLRLSCAASGRTLWLYTMGWYRQATGKERELVARSRSGGSTYYADSVKGRFTISRDNAKNTVYLQMNSLKPEDTAVYYCAAFPYWIHYEHYYWGQGTQVTVSS”, “high polyreactivity”.
Take “QVQLVESGGGLVQAGGSLRLSCAASGRTLWYYTMGWYRQAPGKERELVADITRGTSTNYADSVKGRFTISRDNAKNSVYLQMNSLKPEDTAVYYCNRAHGRSRYSRDYESWGQGTQVTVSS”: the “polyreactivity (PSR sort gate)” value is on record as “low polyreactivity”.
With “QVQLVESGGGLVQAGGSLRLSCAASGRTLWYYTMGWYRQAPGKERELVAVISTSGGRTYYADSVKGRFTISRDNAKNTVYLQMNSLKPEDTAVYYCAADGFQYTLGNYYWGQGTQVTVSS” the entry was “high polyreactivity”; with “QVQLVESGGGLVQAGGSLRLSCAASGRTLYGNTMGWYRQAPGKERELVAAITNRGGSTTYADSVKGRFTISRDNAKNTVYLQMNSLKPEDTAVYYCNKDVTPLHYDSWGQGTQVTVSS”, “high polyreactivity”; with “QVQLVESGGGLVQAGGSLRLSCAASGRTLYGYAMGWYRQAPGKEREFVAAISRSGGRTYYADSVKGRFTISRDNAKNTVYLQMNSLKPEDTAVYYCAARQYQAKQPYGYYPGYGYWGQGTQVTVSS”, “high polyreactivity”.
Under “QVQLVESGGGLVQAGGSLRLSCAASGRTLYNYAKGWYRQAPGKERELDASITWSGGSTYYADSVKGRFTISRDYANNTVYLQMNSLKPEDTAVYYCAAESSPGTFVRYGYRRYYYWGQGTQVTVSS” stands “low polyreactivity”; under “QVQLVESGGGLVQAGGSLRLSCAASGRTLYPYAMGWYRQAPGKERELVATITWGDGSTSYADSVKGRFTISRDNAKNTVYLQMNSLKPEDTAVYYCNVRISNTSYRYPTFDYWGQGTQVTVSS”, “low polyreactivity”; under “QVQLVESGGGLVQAGGSLRLSCAASGRTLYRNAMGWYRQAPGKERELVAAIKMRGGSTYADSVKGRFTISRDNAKNTVYLQMNSLKPEDTAVYYCAAASRSPYYYWGQGTQVTVSS”, “high polyreactivity”.
With “QVQLVESGGGLVQAGGSLRLSCAASGRTLYRYAMGWYRQAPGKERELVAAIRSGGRTNYADSVKGRFTISRDNAKNTVYLQMNSLKPEDTAVYYCAARTLRYPSTYDYWGQGTQVTVSS” the entry was “high polyreactivity”; with “QVQLVESGGGLVQAGGSLRLSCAASGRTLYSYAMGWYRQAPGKERELVAAITSGGRTYYADSVKGRFTISRDNAKNTVYLQMNRLTPEDTAVYYCNDRRTFPRYDRNYESWGQGTQVTVSS”, “high polyreactivity”.
In the case of “QVQLVESGGGLVQAGGSLRLSCAASGRTLYVYTMGWYRQAPGKERELVASISSGVGTNYADSVKGRFTISRDNAKNTVYLQMNSLKPEDTAVYYCAARFRYYRHYYWGQGTQVTVSS”, the “polyreactivity (PSR sort gate)” value is on record as “high polyreactivity”.
Under “QVQLVESGGGLVQAGGSLRLSCAASGRTLYYYGMGWYRQAPGKERELVASITNGGNTNYADSVKGRFTISRDNAKNTVYLQMNSLKPEDTAVYYCAKDVPYWRPVVRYDYWGQGTQVTVSS” stands “low polyreactivity”.
Under “QVQLVESGGGLVQAGGSLRLSCAASGRTSDVYAMGWYRQAPGKERALVAAISSGGSTSYADSVKGRFTISRDNAKNTVNLQMNSLKPEDTAVYYCAADSSGQSRFGYWGQGTQVTVSS” stands “low polyreactivity”; under “QVQLVESGGGLVQAGGSLRLSCAASGRTSFGYAMGWYRQAPGKERELVAVISIGGTTYYADSVKGRFTISRDNAKNTVYLQMNSLKPEDTAVYYCAKDAETYYWGSYKSLYDYWGQGTQVTVSS”, “low polyreactivity”; under “QVQLVESGGGLVQAGGSLRLSCAASGRTSFNYTMGWYRQAPGKERELVAAITSGGDTYYADSVKGRFTISRDNAKNTVYLQMNSLKPEDTAVYYCNADPDFPSKFDDPYSYDYWGQGTQVNVSS”, “low polyreactivity”.
With “QVQLVESGGGLVQAGGSLRLSCAASGRTSGFNTMGWYRQAPGKERELVAAISFSGGSTYYADSVKGRFTISRDNAKNTVYLQMNSLKPEDTAVYYCNALYRYLYRSGDYWGLGTQVTVSS” the entry was “low polyreactivity”; with “QVQLVESGGGLVQAGGSLRLSCAASGRTSGFNTMGWYRQAPGKERELVAAISFSGGSTYYADSVKGRFTISRDNAKNTVYLQMNSLKPEDTAVYYCNALYRYLYRSGDYWGQGTQVTVSS”, “low polyreactivity”; with “QVQLVESGGGLVQAGGSLRLSCAASGRTSGFNTMGWYRQAPGKERELVAAISFSGGSTYYADSVKGRFTISRDYSKNTVYLQMNSLKPEDTAVYYCTALYRYLYRSGDYWGQGTQVTVSS”, “low polyreactivity”.
On to “QVQLVESGGGLVQAGGSLRLSCAASGRTSGVYSMGWYRQAPGKERELVAAISRSGDSTYYADSVKGRFTISRDNAKNTVYLQMNSLKPEDTAVYYCATTFKRSMYWGQGTQVTVSS”, for which the “polyreactivity (PSR sort gate)” value is recorded as “high polyreactivity”.
Regarding “QVQLVESGGGLVQAGGSLRLSCAASGRTSIGYARGWYRQAPGKERELVAVISIGGTTYYADSVKGRFTISRDNAKNTVYLQMNSLKPEDTAVYYCAADSFPAYLGFVGFDYWGQGTQVTVSS”, the “polyreactivity (PSR sort gate)” value is “low polyreactivity”.
